Measured values from the supplement of paper PMC12764529.
± gives the half width of the 95% confidence interval.

Columns and labels:
[1] = folding stability dG unfold from trypsin proteolysis; higher = more stable
Summary of the method: (§1)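 Designed mini-proteins (under 80 residues, no cysteine) in a PA-tagged cDNA display construct were digested with trypsin and chymotrypsin. Each protease was used at 11 concentrations (threefold dilutions) plus a no-protease condition, followed by sequencing. K50 was inferred by Bayesian fitting of sequencing counts, and unfolding free energy was derived against a sequence-predicted unfolded-state K50 and a shared folded-state K50, per protease or combined. Only designs with AlphaFold2 dimer inter-PAE above 15 were kept.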

[2] = folding stability dG unfold from chymotrypsin proteolysis; higher = more stable
Summary of the method: as §1

[3] = folding stability dG unfold (combined trypsin and chymotrypsin); higher = more stable
Summary of the method: as §1

## SAGGMTLLKVRIYIPSEPKPIEVELFTDGDPEKAEEAVRELVEELGYPDAKVEVELLEVDPSDPRFLGSAGG [r13_682_TrMRF]
[1]
  folding stability dG unfold: 2.38 ± 0.041 kcal/mol
[2]
  folding stability dG unfold: 3.984 ± 0.024 kcal/mol
[3]
  folding stability dG unfold: 3.57 ± 0.051 kcal/mol

## SAGGMTLRITTADGRVIEIEADSLEDALAALRTLLGLKPGDVLTVEVVVEVDGEKKTFTLTIVLPPEPSAGG [r13_145_TrROS_Hall]
[1]
  folding stability dG unfold: 4.95 ± 0.14 kcal/mol
[2]
  folding stability dG unfold: 6.08 ± 0.089 kcal/mol
[3]
  folding stability dG unfold: > 6 kcal/mol

## SAGGMTLVIKVTNKDGSTLTITFDAETNTITITFPDGTTRTITVPADTTIEELIAALPPDAKVEILPASAGG [r13_696_TrROS_Hall]
[1]
  folding stability dG unfold: 3.42 ± 0.073 kcal/mol
[2]
  folding stability dG unfold: 4.75 ± 0.11 kcal/mol
[3]
  folding stability dG unfold: 4.55 ± 0.1 kcal/mol

## SAGGMTRKLTFLGDIDKPVGLDGDIEIRPNPETGGFTIRVPPGVRIEAEVERLTDPPLALVTVTFLESAGGS [r16_122_TrMRF]
[1]
  folding stability dG unfold: -0.118 ± 0.082 kcal/mol
[2]
  folding stability dG unfold: 1.03 ± 0.074 kcal/mol
[3]
  folding stability dG unfold: 0.715 ± 0.054 kcal/mol

## SAGGMTTFELYDPVNNKKYTLTYDPATNTLTLYNPENGEILETKPVPNLQSVEAPIVPGGIEVGVVINSAGG [r13_720_JUSTAS]
[1]
  folding stability dG unfold: 2.11 ± 0.07 kcal/mol
[2]
  folding stability dG unfold: 2.75 ± 0.062 kcal/mol
[3]
  folding stability dG unfold: 2.5 ± 0.085 kcal/mol

## SAGGMTTTTLTLEEFLEKYPEEVVKERTEKPLGPGANLTIVTLTAPGTTITVTSNPAQPDIWTVTTVTSAGG [r13_942_JUSTAS]
[1]
  folding stability dG unfold: 0.75 ± 0.018 kcal/mol
[2]
  folding stability dG unfold: 1.11 ± 0.049 kcal/mol
[3]
  folding stability dG unfold: 0.965 ± 0.051 kcal/mol

## SAGGMTTTVELELEDPVNLGVPVRVEATVTYEKDPNGNPVAKAEITTTYPDGKEEKTTIPVSELKGLGSAGG [r13_787_JUSTAS]
[1]
  folding stability dG unfold: 0.294 ± 0.059 kcal/mol
[2]
  folding stability dG unfold: -0.603 ± 0.13 kcal/mol
[3]
  folding stability dG unfold: -0.00381 ± 0.17 kcal/mol

## SAGGMTVETTTVTLAAGTTYTVTTPSDSTVEVVDTETGVVRRFDVPASTDFSVTLPADRTYDITVVRRSAGG [r19_78_JUSTAS]
[1]
  folding stability dG unfold: 0.7932 ± 0.0053 kcal/mol
[2]
  folding stability dG unfold: 1.35 ± 0.022 kcal/mol
[3]
  folding stability dG unfold: 1.15 ± 0.032 kcal/mol

## SAGGMTVKITIEVEEPGKTAEELAEELARELEKAGFKVEVVSVEVEEVDGRLIVTIEVKVDSEEALKASAGG [r13_979_TrROS_Hall]
[1]
  folding stability dG unfold: 2.36 ± 0.055 kcal/mol
[2]
  folding stability dG unfold: 2.55 ± 0.077 kcal/mol
[3]
  folding stability dG unfold: 2.52 ± 0.058 kcal/mol

## SAGGMTVPIFVPVDSPEQVEEILEELATPDVKEIVPATLPPLPPPGDKMVVPINITIFPGTGKAVIDASAGG [r13_174_TrMRF]
[1]
  folding stability dG unfold: -1.08 ± 0.12 kcal/mol
[2]
  folding stability dG unfold: 0.991 ± 0.014 kcal/mol
[3]
  folding stability dG unfold: 0.492 ± 0.086 kcal/mol

## SAGGMTVTIPYKGSPELAERVVEAIQEAFPEVRVEEVVVEPGDPTNITITVRFDNDVPASAIAEVLSSAGGS [r16_180_JUSTAS]
[1]
  folding stability dG unfold: 2.24 ± 0.041 kcal/mol
[2]
  folding stability dG unfold: 1.55 ± 0.035 kcal/mol
[3]
  folding stability dG unfold: 1.85 ± 0.071 kcal/mol

## SAGGMTVTVKVTEIKKIGDKYEITLKNPDGTPKTVTIDDPEVVKKITPDSEVTVTVNPDGSYTITLESAGGS [r16_2_JUSTAS]
[1]
  folding stability dG unfold: 3.74 ± 0.28 kcal/mol
[2]
  folding stability dG unfold: 3.48 ± 0.23 kcal/mol
[3]
  folding stability dG unfold: 3.84 ± 0.29 kcal/mol

## SAGGMVEELDAKDADKIIVGADPDEEVFVLVEVYDDGELLEVVELEPGEEIEIPKDYKVKIVTVPKDLSAGG [r13_978_TrMRF]
[1]
  folding stability dG unfold: 0.119 ± 0.081 kcal/mol
[2]
  folding stability dG unfold: -0.0827 ± 0.63 kcal/mol
[3]
  folding stability dG unfold: -0.293 ± 0.52 kcal/mol

## SAGGMVEEVKELAKELGFDVEIELTSVYGEKGYVPYKVTFPNGKTYYITFKGSPDEMKKKLRDLLEKSAGGS [r16_153_TrMRF]
[1]
  folding stability dG unfold: 2.2 ± 0.058 kcal/mol
[2]
  folding stability dG unfold: 2.99 ± 0.034 kcal/mol
[3]
  folding stability dG unfold: 2.82 ± 0.065 kcal/mol

## SAGGMVIIIPSPDNTVLIIEIEGDKAKIIIINPEDGSAVIIELPIEPNGDGSFILKITSIEVLEDADISAGG [r13_556_TrMRF]
[1]
  folding stability dG unfold: 2.97 ± 0.2 kcal/mol
[2]
  folding stability dG unfold: 3.34 ± 0.13 kcal/mol
[3]
  folding stability dG unfold: 3.27 ± 0.26 kcal/mol

## SAGGMVIKVTDAEEAIERVIELVKSLGPEAVIKEITVTNTGTVVKVEPGKKGTVSPDSTITVNIEKGSAGGS [r16_267_JUSTAS]
[1]
  folding stability dG unfold: -0.0389 ± 0.066 kcal/mol
[2]
  folding stability dG unfold: 0.938 ± 0.075 kcal/mol
[3]
  folding stability dG unfold: 0.662 ± 0.14 kcal/mol

## SAGGMVIPPEATLTGSTTSWVTTSDGRKLLVTTPVYRFPGNTTVVVSTVTDPTSAASTVTVSTEPALSAGGS [r16_370_JUSTAS]
[1]
  folding stability dG unfold: 0.498 ± 0.069 kcal/mol
[2]
  folding stability dG unfold: 0.107 ± 0.12 kcal/mol
[3]
  folding stability dG unfold: 0.374 ± 0.085 kcal/mol

## SAGGMVKLTITITTENETTTYPRVVPEEELEEVKKEAEELAKKLGADPKTVTVSKVERLKEPGGVPVSAGGS [r16_650_JUSTAS]
[1]
  folding stability dG unfold: 0.694 ± 0.029 kcal/mol
[2]
  folding stability dG unfold: 0.901 ± 0.033 kcal/mol
[3]
  folding stability dG unfold: 0.856 ± 0.061 kcal/mol

## SAGGMVLFRIRFRTGPDGIVRLDPELLEQAEGADIDEDDPRVALILAEPEFLEKLSPELLEEAEILPSAGGS [r16_328_TrMRF]
[1]
  folding stability dG unfold: 0.607 ± 0.1 kcal/mol
[2]
  folding stability dG unfold: 0.606 ± 0.12 kcal/mol
[3]
  folding stability dG unfold: 0.684 ± 0.047 kcal/mol

## SAGGMVLKPVKLNGNENLKTTADGAEVEYTSDGKGNVTITVRYEPNLTVEALVNGSTVTLVKTEEGYLSAGG [r13_92_JUSTAS]
[1]
  folding stability dG unfold: 0.843 ± 0.09 kcal/mol
[2]
  folding stability dG unfold: 0.937 ± 0.11 kcal/mol
[3]
  folding stability dG unfold: 0.867 ± 0.15 kcal/mol

## SAGGMVLVERDGDRLVLLIPFPADEPPTPEEVEAEARAILRELGPDVRIRSVHRLPDGGYLVEAEVDSAGGS [r8_103_TrMRF]
[1]
  folding stability dG unfold: 3.17 ± 0.065 kcal/mol
[2]
  folding stability dG unfold: 3.69 ± 0.038 kcal/mol
[3]
  folding stability dG unfold: 3.56 ± 0.041 kcal/mol

## SAGGMVLVRFDSLEEAREHAELLEELGYEVELLPTEDYVLLLVRPLPLPPPTPEELAEALRNPGSALASAGG [r13_8_TrMRF]
[1]
  folding stability dG unfold: 2.33 ± 0.062 kcal/mol
[2]
  folding stability dG unfold: 2.671 ± 0.014 kcal/mol
[3]
  folding stability dG unfold: 2.53 ± 0.066 kcal/mol

## SAGGMVTKTYEFEGENGGKILIEVKEDPDKPVVTVKFYRPDGKPLFEAEIEADSIEDAIQQAKDLLASAGGS [r16_158_TrMRF]
[1]
  folding stability dG unfold: 3.45 ± 0.12 kcal/mol
[2]
  folding stability dG unfold: 3.76 ± 0.11 kcal/mol
[3]
  folding stability dG unfold: 3.66 ± 0.13 kcal/mol

## SAGGMVVRIKVKIKNPETGEVIEVEALVEVDEDGNVTITLPNGKKITLPKGAKVEIVDVEELPPEDLSAGGS [r16_223_TrROS_Hall]
[1]
  folding stability dG unfold: 3.72 ± 0.11 kcal/mol
[2]
  folding stability dG unfold: 3.14 ± 0.075 kcal/mol
[3]
  folding stability dG unfold: 3.52 ± 0.093 kcal/mol

## SAGGMVYVVRLRDEDGTEYTALVEEFDGIYRVRLFDEDGELVEEREFESVEEAIDALLAEGYEVEVYPSAGG [r13_315_TrMRF]
[1]
  folding stability dG unfold: 4 ± 0.079 kcal/mol
[2]
  folding stability dG unfold: 4.881 ± 0.035 kcal/mol
[3]
  folding stability dG unfold: 4.66 ± 0.07 kcal/mol

## SAGGMYRVKVGDDERLIDTDPENFKTLEEAVKKVAEKIKEEYPNRPELTITVEAEDGTPLATVTITLSSAGG [r13_257_JUSTAS]
[1]
  folding stability dG unfold: 0.759 ± 0.12 kcal/mol
[2]
  folding stability dG unfold: 0.614 ± 0.19 kcal/mol
[3]
  folding stability dG unfold: 0.894 ± 0.29 kcal/mol
